Common to all, as to experiment: cell-based or functional assay
Assay [1] addresses T1, human Klotho β (human, UniProt Q86Z14 1-1044).
T1 sequence (looked up): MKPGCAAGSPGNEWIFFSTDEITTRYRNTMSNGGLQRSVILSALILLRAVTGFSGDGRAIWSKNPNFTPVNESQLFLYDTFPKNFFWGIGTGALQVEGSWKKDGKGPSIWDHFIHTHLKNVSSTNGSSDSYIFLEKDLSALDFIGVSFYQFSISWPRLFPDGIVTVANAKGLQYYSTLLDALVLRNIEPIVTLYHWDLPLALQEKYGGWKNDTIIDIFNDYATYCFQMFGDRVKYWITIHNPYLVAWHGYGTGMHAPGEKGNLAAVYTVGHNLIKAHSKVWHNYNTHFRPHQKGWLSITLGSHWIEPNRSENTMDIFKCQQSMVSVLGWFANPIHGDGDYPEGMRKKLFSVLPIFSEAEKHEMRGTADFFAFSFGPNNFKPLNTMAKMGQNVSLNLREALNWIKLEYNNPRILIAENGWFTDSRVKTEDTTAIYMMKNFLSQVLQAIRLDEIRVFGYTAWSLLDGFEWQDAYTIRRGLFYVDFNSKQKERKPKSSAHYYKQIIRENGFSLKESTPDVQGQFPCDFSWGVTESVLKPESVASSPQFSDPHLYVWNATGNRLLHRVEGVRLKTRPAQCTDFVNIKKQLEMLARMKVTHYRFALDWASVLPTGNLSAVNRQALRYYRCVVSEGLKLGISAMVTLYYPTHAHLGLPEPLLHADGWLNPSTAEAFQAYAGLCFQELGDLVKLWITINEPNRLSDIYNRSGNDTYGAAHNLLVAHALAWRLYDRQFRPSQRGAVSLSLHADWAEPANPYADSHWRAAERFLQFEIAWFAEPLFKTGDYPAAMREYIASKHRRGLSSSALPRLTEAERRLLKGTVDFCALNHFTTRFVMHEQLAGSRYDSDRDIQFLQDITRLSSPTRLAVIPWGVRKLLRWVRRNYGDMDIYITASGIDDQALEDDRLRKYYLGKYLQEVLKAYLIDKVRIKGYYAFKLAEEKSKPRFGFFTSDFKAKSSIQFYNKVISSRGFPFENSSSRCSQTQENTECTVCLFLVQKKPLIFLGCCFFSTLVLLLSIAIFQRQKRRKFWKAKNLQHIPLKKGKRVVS

The target in the next assay is mouse Klotho β (mouse) (UniProt Q99N32).
Chain of mouse Klotho β (mouse) (Q99N32 whole entry): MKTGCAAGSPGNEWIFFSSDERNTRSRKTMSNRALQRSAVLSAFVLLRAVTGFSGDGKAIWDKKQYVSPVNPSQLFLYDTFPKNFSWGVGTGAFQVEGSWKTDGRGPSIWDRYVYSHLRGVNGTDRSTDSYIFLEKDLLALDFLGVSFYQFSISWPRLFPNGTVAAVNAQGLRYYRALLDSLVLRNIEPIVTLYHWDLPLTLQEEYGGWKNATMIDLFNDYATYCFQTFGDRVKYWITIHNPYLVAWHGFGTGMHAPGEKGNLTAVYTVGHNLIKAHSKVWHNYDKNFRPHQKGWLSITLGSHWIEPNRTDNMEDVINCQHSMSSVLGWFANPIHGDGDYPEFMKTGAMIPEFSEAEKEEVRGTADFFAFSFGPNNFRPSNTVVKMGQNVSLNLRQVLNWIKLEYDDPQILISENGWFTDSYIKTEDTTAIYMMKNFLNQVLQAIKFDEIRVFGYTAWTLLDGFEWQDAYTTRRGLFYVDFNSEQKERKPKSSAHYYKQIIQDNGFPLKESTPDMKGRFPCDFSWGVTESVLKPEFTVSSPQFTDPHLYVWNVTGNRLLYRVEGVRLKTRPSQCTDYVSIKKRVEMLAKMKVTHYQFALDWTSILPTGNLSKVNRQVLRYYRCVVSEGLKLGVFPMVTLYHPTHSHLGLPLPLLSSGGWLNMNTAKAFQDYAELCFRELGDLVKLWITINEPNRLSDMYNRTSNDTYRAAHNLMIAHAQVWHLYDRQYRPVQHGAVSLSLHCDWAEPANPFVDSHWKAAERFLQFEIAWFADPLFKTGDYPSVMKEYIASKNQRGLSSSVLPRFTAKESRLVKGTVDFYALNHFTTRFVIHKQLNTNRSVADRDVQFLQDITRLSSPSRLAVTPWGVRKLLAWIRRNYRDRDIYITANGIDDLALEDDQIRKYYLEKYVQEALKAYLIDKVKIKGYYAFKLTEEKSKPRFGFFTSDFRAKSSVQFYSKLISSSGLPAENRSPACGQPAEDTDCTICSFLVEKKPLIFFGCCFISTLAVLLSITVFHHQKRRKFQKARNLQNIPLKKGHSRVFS
Assay [2] deals with T1, human Klotho β. The source holds these as a separate data set.
In assay [3] the target is T1, human Klotho β. This is another data set of the same source.
Assay [4] addresses T1, human Klotho β. This is another data set of the same source.
The target in assay [5] is T1, human Klotho β. This is another data set of the same source.
In assay [6] the target is T1, human Klotho β. This is another data set of the same source.
For assay [7], the target named is T1, human Klotho β. This is another data set of the same source.

Read-outs that look alike come from different tables or passages of the source. Non-standard residues stand in square brackets, D forms with d. No end group written: not given here.

In the assay with human Klotho β [1], “FGF19 (from UniProt O95750 25-216) (ligand)” showed a % maximal activity, Erk1/2 phosphorylation in 293T HEK hKLB cells (FIG. 9B) of 27%; an EC-50 of Erk1/2 phosphorylation in 293T HEK hKLB cells (FIG. 9B) of 148 nM; a potency (agonism) in cells that overexpressed human KLB (FIG. 11A) of 65.8. In the assay with mouse Klotho β (mouse), this molecule gave a potency (agonism) in cells that overexpressed mouse KLB (FIG. 11B) of 25.7.

PPDVGSSDPLSMVGPSQG[dR]SPSYAS-NH2 [FGF21 D19]: in the assay with human Klotho β [2], the “% Activity vs C25” value came out at 271%. For the same molecule, the “IC50 of antagonism of FGF21 (assay of Example 1)” value (“IC50 of antagonism of FGF21” for short) in the assay with human Klotho β [2] is 152 nM; with human Klotho β [3], 52.5 nM.

For LETDSMDPF[dS]LVTGLEAVRSPSFEA-NH2 [FGF19 S10A26], the “IC50 of antagonism of FGF21” value with human Klotho β [3] came to 10.9 nM.

B1: FGF21-19 K194A (ligand)
chain: HPIPDSSPLLQFGGQVRQRYLYTDDAQQTEAHLEIREDGTVGGAADQSPESLLQLKALKPGVIQILGVKTSRFLCQRPDGALYGSLHFDPEACSFRELLLEDGYNVYQSEAHGLPLHLPGNKSPHRDPAPRGPARFLPLPGLPPALPEPPGILAPQPLETDSMDPFGLVTGLEAVRSPSFEA
Take B1: the “potency as agonist relative to native FGF21” value with human Klotho β [4] is about 5 fold.

B2: FGF21 (ligand)
chain: HPIPDSSPLLQFGGQVRQRYLYTDDAQQTEAHLEIREDGTVGGAADQSPESLLQLKALKPGVIQILGVKTSRFLCQRPDGALYGSLHFDPEACSFRELLLEDGYNVYQSEAHGLPLHLPGNKSPHRDPAPRGPARFLPLPGLPPALPEPPGILAPQPPDVGSSDPLSMVGPSQGRSPSYAS
Take B2: in the assay with human Klotho β [4], the “% maximal activity, Erk1/2 phosphorylation in 293T HEK hKLB cells (FIG. 9A)” value (“% maximal activity … (FIG. 9A)” below) stood at 100%.

B3: FGF21 P171A (ligand)
chain: HPIPDSSPLLQFGGQVRQRYLYTDDAQQTEAHLEIREDGTVGGAADQSPESLLQLKALKPGVIQILGVKTSRFLCQRPDGALYGSLHFDPEACSFRELLLEDGYNVYQSEAHGLPLHLPGNKSPHRDPAPRGPARFLPLPGLPPALPEPPGILAPQPPDVGSSDPLSMVGASQGRSPSYAS
Regarding B3, the “% maximal activity … (FIG. 9A)” value in the assay with human Klotho β [4] was 100%.

B4: FGF21 D164A (ligand)
chain: HPIPDSSPLLQFGGQVRQRYLYTDDAQQTEAHLEIREDGTVGGAADQSPESLLQLKALKPGVIQILGVKTSRFLCQRPDGALYGSLHFDPEACSFRELLLEDGYNVYQSEAHGLPLHLPGNKSPHRDPAPRGPARFLPLPGLPPALPEPPGILAPQPPDVGSSAPLSMVGPSQGRSPSYAS
B4: the “% maximal activity … (FIG. 9A)” value with human Klotho β [4] stood at 6%.

Turning to PPAVGSSDPLSMVGPSQGRSPSYAS [FGF21 25mer A3], in the assay with human Klotho β [5], the “% max activity of antagonism of FGF21 (pErk1/2, 293 HEK hKLB cells)” value (“% max activity of antagonism of FGF21” below) was 87.8% and the “IC-50 of antagonism of FGF21 (pErk1/2, 293 HEK hKLB cells)” value (shortened to “IC-50 of antagonism of FGF21”) came to 2.28 µM. Further, the “IC-50 of antagonism of FGF21” value with human Klotho β [6] stood at 1.5 µM.

For the molecule PPDVGSSDPLSMVGPSQGRSPSAAS [FGF21 25mer A23], in the assay with human Klotho β [5], the “% max activity of antagonism of FGF21” value was 73.6% and the “IC-50 of antagonism of FGF21” value is 3.98 µM. In addition, the “IC-50 of antagonism of FGF21” value with human Klotho β [6] worked out at 4.16 µM.

Take PPDVGSSDPLSMVGPSQGRSASYAS [FGF21 25mer A21]: in the assay with human Klotho β [5], the “% max activity of antagonism of FGF21” value came out at 70.5% and the “IC-50 of antagonism of FGF21” value stood at 2.24 µM. For the same molecule, the “IC-50 of antagonism of FGF21” value with human Klotho β [6] is 2.57 µM.

Turning to PPDVGSSDPL[dS]MVGPSQGRSPSYAS-NH2 [FGF21 D11], the “% Activity vs C25” value with human Klotho β [2] was determined as 596%. Moreover, the “IC50 of antagonism of FGF21” value with human Klotho β [2] was determined as 57.3 nM; with human Klotho β [3], 19.9 nM.

On to PPDVGSSDPL[dS]MVGPSQG[dR]SPSYAS-NH2 [FGF21 D11D19], for which, in the assay with human Klotho β [3], the “IC50 of antagonism of FGF21” value came to 14.1 nM.

In the case of PPDVGSSDPLSMVGPSQGRSPAYAS [FGF21 25mer A22], in the assay with human Klotho β [5], the “% max activity of antagonism of FGF21” value is 78.5% and the “IC-50 of antagonism of FGF21” value stood at 752 nM. Moreover, in the assay with human Klotho β [6], the “IC-50 of antagonism of FGF21” value was 0.67 µM.

LETDSMDPF[dS]LVTGLEAVRSPSFES-NH2 [FGF19 S10]: the “IC50 of antagonism of FGF21” value with human Klotho β [3] stood at 194 nM.

On to LETDSMDPFGLVTGLEAVRSPSFEA [FGF19 A26], for which, in the assay with human Klotho β [3], the “IC50 of antagonism of FGF21” value came out at 17.9 nM.

In the case of PPDVGSSDPLSMVGPSQGRSPSYAS-NH2 [FGF21 157-181], in the assay with human Klotho β [5], the “% max activity of antagonism of FGF21” value amounted to 100% and the “IC-50 of antagonism of FGF21” value is 168 nM. In the assay with human Klotho β [2], the “% Activity vs C25” value was found to be 100% and the “IC50 of antagonism of FGF21” value was 283 nM. Besides, the “IC50 of antagonism of FGF21” value with human Klotho β [3] came to 182 nM. The “IC-50 of antagonism of FGF21” value with human Klotho β [7] amounted to 0.16 µM.
